This note sets out measurements from US20190381162A1 (INTEGRATED BIOTHERAPEUTICS, published 2019).

Broadly, the EC50 is the midpoint of the concentration-response curve. Broadly, the Kd is the constant that tells how readily two partners part at equilibrium. A high value points to a looser complex. Usually koff stands for the first-order rate constant of dissociation. A lower koff goes with slow dissociation. Usually kon stands for the rate constant with which the complex forms. High values mean fast association, low ones slow association.

Test [1] has as its target T1, Ebola virus (EBOV) glycoprotein (GP), wild-type, construct not stated (Ebola virus (EBOV), UniProt Q05320 33-650).
T1 sequence: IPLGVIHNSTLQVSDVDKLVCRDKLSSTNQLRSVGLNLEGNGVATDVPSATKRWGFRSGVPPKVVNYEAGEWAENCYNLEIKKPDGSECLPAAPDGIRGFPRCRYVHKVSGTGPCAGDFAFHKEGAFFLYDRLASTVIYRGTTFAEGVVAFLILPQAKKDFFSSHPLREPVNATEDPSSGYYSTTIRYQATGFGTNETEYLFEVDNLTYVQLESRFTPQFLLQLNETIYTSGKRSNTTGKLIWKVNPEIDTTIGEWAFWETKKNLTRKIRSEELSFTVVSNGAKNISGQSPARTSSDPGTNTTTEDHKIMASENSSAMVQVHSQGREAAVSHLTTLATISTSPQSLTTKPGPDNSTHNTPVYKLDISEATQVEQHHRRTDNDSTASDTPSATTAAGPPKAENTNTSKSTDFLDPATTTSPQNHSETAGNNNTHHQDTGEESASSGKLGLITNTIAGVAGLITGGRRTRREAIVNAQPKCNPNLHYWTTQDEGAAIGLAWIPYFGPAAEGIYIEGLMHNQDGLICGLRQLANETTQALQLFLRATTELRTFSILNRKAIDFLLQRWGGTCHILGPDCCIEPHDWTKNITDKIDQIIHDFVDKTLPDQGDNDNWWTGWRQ
Kind of test: cell-based or functional assay.

In test [2] the target is T2, thermolysin-cleaved GP (GPCL) (Ebola virus (EBOV), UniProt Q05320 33-190; Q05320 502-650).
T2 sequence 1: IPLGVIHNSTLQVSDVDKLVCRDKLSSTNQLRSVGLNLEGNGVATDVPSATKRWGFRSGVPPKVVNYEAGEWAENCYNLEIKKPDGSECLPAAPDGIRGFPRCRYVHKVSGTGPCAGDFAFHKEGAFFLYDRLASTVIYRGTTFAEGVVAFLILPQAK
T2 sequence 2: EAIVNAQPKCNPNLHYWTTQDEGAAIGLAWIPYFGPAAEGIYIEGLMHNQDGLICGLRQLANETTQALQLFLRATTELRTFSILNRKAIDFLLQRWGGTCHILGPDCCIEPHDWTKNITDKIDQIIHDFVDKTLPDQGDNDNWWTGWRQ
The experiment in a line: ELISA.

Test [3] concerns the target T2, thermolysin-cleaved GP (GPCL). Kind of test: biolayer interferometry. A general note: BLI is a label-free optical method that tracks binding on a fibre tip over time.

Where only a bound is given, the exact number is not on record here.

B1: m8C4 (antibody, V domains shown)
VH: EVQLQESGPELKKPGETVKISCKASGYTFTTYGMSWVKQAPGKGLKWMGRINTYSGVPTYADEFKGRFAFSLENSASTAYLQINNLKNEDTATYFCARGDGGHWFANWGQGTLVTVSA
VL: DIQMTQSPSSLSASLGGKVTITCKASQDINKNIAWYQHKPGKGPRLLIWYKSALQPGIPSRFSGSGSGRDYSFSISNLEPEDIATYSCLQYDNLPPTFGGGTKLEIKR
In the case of B1, in test [1], the “EC50 of neutralization of luciferase-expressing VSV pseudotype on Vero cells” value is above 10 µg/mL.

B2: CA45 (antibody, V domains shown)
VH: QVQLQEWGEGLVKPSETLSLTCAVYGGSISGYYHWNWIRLPPGKGLEWIGNIDNSASTNYNPSLKTRVTISKDTSKNQISLKVRSLTAADTAVYYCARDPGFTIFGVVITSWSGLDSWGQGAVVTVSS
VL: DIQMTQSPSSLSASVGDTVTITCRASQSISNNLAWYQQRPRRAPQLLIYAASNLASGVPSRFSGSGSGTDFTLTISSLQAEDFAAYYCQQHNTLPLTFGGGTKVEI
In the case of B2, a half-maximal effect in test [2] (EC50) was put at 0.06 nM. In test [3], the Kd was below 0.006 nM, the koff was below 1e-07 s⁻¹ and the on-rate constant (kon) came out at 16000 M⁻¹ s⁻¹.
